# The supplement of paper PMC10724198
# ± gives the standard deviation of the averaged measurements.
# Test system: Saccharomyces cerevisiae
# Assay: protein stability index of tFT-peptide fusion (C-terminal peptide) (PSI (0-1 scale)); higher = more stable (slower turnover)
# Settings: genetic background: das1 deletion; temperature: 30 C
# Method: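 MPS profiling in S. cerevisiae of the tFT-X12 degron library: putative degron peptides plus stable controls, 12 aa, fused to the C-terminus of a sfGFP-mCherry timer. Cells are FACS-sorted into 8 mCherry/sfGFP bins and deep-sequenced. PSI runs from 0 (unstable) to 1 (stable). Backgrounds are wild type, das1Δ and doa10Δ at 30 °C, and wild type, das1Δ, cdc34-1 and cdc53-1 at 37 °C; 2-3 technical replicates each.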
# 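Note: PSI is a weighted mean of sequencing reads over stability bins, variants kept only with over 10 reads, mCherry proximal and sfGFP distal, peptide attached via GGGS linker.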
row,Sequence,protein stability index
1,HIVYCSSEQIKC,0.446 ± 0.026
2,HLLMLAMVGFQC,0.475 ± 0.038
3,HVLGSIYWAIFV,0.407 ± 0.024
4,IGFFFACFFSVF,0.403 ± 0.021
5,IGWKLNRIQKNI,0.649 ± 0.028
6,IGYLGSELRFVS,0.626 ± 0.0078
7,IISICLYFLVRC,0.229 ± 0.027
8,IKKKKRKKIKAN,0.65 ± 0.024
9,IKWRCLFCVCVL,0.429 ± 0.026
10,ILFRRRLCCFLK,0.443 ± 0.019
11,ILLHSFFSFYLL,0.508 ± 0.027
12,ILLYCVLIDPYS,0.221 ± 0.043
13,ILVLKFLRLLSA,0.444 ± 0.034
14,ISPCLVRLWYRI,0.544 ± 0.018
15,IVCYFFAFSFMW,0.293 ± 0.028
16,IVEVNCILMWIF,0.365 ± 0.021
17,IVGVLAVLVRPV,0.369 ± 0.03

row,Sequence,protein stability index
1,IVIFQTAYVVRI,0.164 ± 0.011
2,IVVVVRLSPILG,0.27 ± 0.015
3,IWIHSVGVECTS,0.359 ± 0.036
4,IWYGLFWLRFWV,0.497 ± 0.018
5,IYNIIFKYRTIT,0.575 ± 0.0086
6,KCWSGTVMVRLG,0.596 ± 0.013
7,KERHRNKRKQIA,0.66 ± 0.022
8,KERNKISQRKLT,0.666 ± 0.015
9,KFKRLTKFYARQ,0.676 ± 0.032
10,KHKIIGKYQRQI,0.629 ± 0.033
11,KIIKERIRRIKI,0.591 ± 0.032
12,KIRGYLMPLTLL,0.557 ± 0.027
13,KKKKNIKIKKQI,0.646 ± 0.034
14,KLKTSHILIKQT,0.606 ± 0.029
15,KLSLRYLLVSLI,0.456 ± 0.018
16,KMIVWKESIKRE,0.633 ± 0.029

# Same assay, conditions: genetic background: das1 deletion; temperature: 37 C
row,Sequence,protein stability index
1,HIVYCSSEQIKC,0.589 ± 0.0063
2,HLLMLAMVGFQC,0.619 ± 0.02
3,HVLGSIYWAIFV,0.563 ± 0.023
4,IGFFFACFFSVF,0.518 ± 0.0099
5,IGWKLNRIQKNI,0.728 ± 0.047
6,IGYLGSELRFVS,0.762 ± 0.018
7,IISICLYFLVRC,0.391 ± 0.0067
8,IKKKKRKKIKAN,0.751 ± 0.015
9,IKWRCLFCVCVL,0.489 ± 0.0054
10,ILFRRRLCCFLK,0.536 ± 0.012
11,ILLHSFFSFYLL,0.5933 ± 0.0054
12,ILLYCVLIDPYS,0.352 ± 0.0093
13,ILVLKFLRLLSA,0.563 ± 0.012
14,ISPCLVRLWYRI,0.673 ± 0.019
15,IVCYFFAFSFMW,0.462 ± 0.0081
16,IVEVNCILMWIF,0.532 ± 0.029
17,IVGVLAVLVRPV,0.5371 ± 0.0051

row,Sequence,protein stability index
1,IVIFQTAYVVRI,0.238 ± 0.012
2,IVVVVRLSPILG,0.4272 ± 0.003
3,IWIHSVGVECTS,0.544 ± 0.0068
4,IWYGLFWLRFWV,0.586 ± 0.015
5,IYNIIFKYRTIT,0.661 ± 0.073
6,KCWSGTVMVRLG,0.723 ± 0.032
7,KERHRNKRKQIA,0.7046 ± 0.004
8,KERNKISQRKLT,0.714 ± 0.028
9,KFKRLTKFYARQ,0.618 ± 0.011
10,KHKIIGKYQRQI,0.7236 ± 0.0012
11,KIIKERIRRIKI,0.71254 ± 0.0005
12,KIRGYLMPLTLL,0.709 ± 0.014
13,KKKKNIKIKKQI,0.711 ± 0.084
14,KLKTSHILIKQT,0.716 ± 0.024
15,KLSLRYLLVSLI,0.606 ± 0.011
16,KMIVWKESIKRE,0.723 ± 0.015
